Measured values from the supplement of paper PMC9732359.
± gives the uncertainty stated by the source.

Assay: protein stability index of a GFP-peptide fusion (yeast GPS) (PSI 1-4); higher = more stable; sorted into four equal gates, so the index is relative within each strain
Settings: san1∆
In short: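 Yeast carrying a pooled library were grown to mid-log phase in leucine-free medium. Each library plasmid expresses Cherry and has a tiled 17-residue yeast protein peptide fused downstream of GFP. Cells were sorted into four equal gates by GFP/Cherry ratio, and plasmids from each gate were PCR-amplified, Illumina-sequenced and assigned to strains by barcode. Summing, across gates, the read frequency times the gate number gave each peptide's protein stability index.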

DLKRFVDESLLSTLPAG [QCR2] and DLLHPTAASEARKHKLK [RPS27A] are within error of each other in protein stability index: 2.52 ± 0.099 for the first, 2.53 ± 0.11 for the second.

Same assay, conditions: ubr1∆

AVAHHTDCKFIRVSGAE [RPT6] and AVAVVVDPIQSVKGKVV [RPN11] are within error of each other in protein stability index: 2.92 ± 0.11 for the first, 2.84 ± 0.18 for the second.

First: AVKRGTCAVGVKGKNCV [PRE6]
Second: AVQNESVSSPIELNFDA [QCR2]
The protein stability index of the first is lower: 2.51 ± 0.17 for the first, 3.06 ± 0.042 for the second.

AVTEREVLVTPGLEFLD [MCD1] and AVYGPRSIRGSFTSQGT [MTR3] are within error of each other in protein stability index: 2.94 ± 0.13 for the first, 3.02 ± 0.058 for the second.

Going from AYAQVEIQPRANIQLDF [FAS2] to AYGVLDSNYKWDLSVED [PRE2], the protein stability index rises from 3.16 ± 0.049 to 3.42 ± 0.056.

First: AYHQKYVDEQSKNELKK [RPS16A]
Second: CGGINDSIPYPQIVKLF [ECM29]
The protein stability index of the first is higher: 2.94 ± 0.12 for the first, 1.71 ± 0.049 for the second.

Compared with CGHRILLKARTKRLVQF [RPC10], CIQVNCLNCEKSKLFEW [SNM1] is higher in protein stability index: 1.22 ± 0.052 for the first, 3.16 ± 0.052 for the second.

Going from CLEACSFILSSLEDPQV [YDL116W/NUP84] to CLMRSLHKLELKAKNQE [DSN1], the protein stability index falls from 2.75 ± 0.042 to 1.16 ± 0.051.

Compared with CLQDALDAIDDFIQLKQ [SSN2], CLTMFEDRNESVNIAFA [ECM29] is lower in protein stability index: 2.92 ± 0.06 for the first, 2.5 ± 0.073 for the second.

CNEEQTLEAKIGGLLSK [RPO31] and CNSIINKLGALKTNFET [RPB11] are within error of each other in protein stability index: 2.91 ± 0.05 for the first, 3.05 ± 0.17 for the second.

Going from CSGSGMGGVSALRGMFK [FAS2] to CSKAMGDLASLVLLNGR [RPP1], the protein stability index falls from 3.43 ± 0.067 to 2.73 ± 0.037.

CSNESFASIPVSNSISR [SNU114] and CSNPTCGAGVFLANHKD [RPS31] are within error of each other in protein stability index: 2.7 ± 0.062 for the first, 2.73 ± 0.14 for the second.

Going from CSPKLPVEKVQRIAKND [DLS1] to CSPWSLQISDIPAAGNN [SRB5], the protein stability index falls from 3.4 ± 0.12 to 2.41 ± 0.032.

Going from CTSLMDIIVAIKIFELK [IRR1] to CWPKDSRMRLIRQDVNL [PRP8], the protein stability index rises from 1.36 ± 0.072 to 2.76 ± 0.12.

Going from DADTEDPHSASLINSHL [RPC82] to DAELMADEEEEIVDTYQ [ISW2], the protein stability index falls from 3 ± 0.13 to 1.24 ± 0.25.

DALKVVLRTALVHDGLA [RPS12] and DALVKRFKNSVKWYHFD [PRE7] are within error of each other in protein stability index: 3.25 ± 0.1 for the first, 3.08 ± 0.07 for the second.

First: DCLDKLLNDECTESTRE [SNF2]
Second: DCQFWETWLGSQCRLHE [PRE2]
The protein stability index of the first is higher: 3.41 ± 0.17 for the first, 2.6 ± 0.09 for the second.

First: DDDDSRKSAPVDSWDRE [SKP1]
Second: DDDILIIRPILGKVRFA [SRB4]
The protein stability index of the first is higher: 3.23 ± 0.044 for the first, 2.56 ± 0.05 for the second.

DDELMNWRRLSGRNIHL [SSN2] and DDIVSHQGTPLGSHSSS [REC8] are within error of each other in protein stability index: 3.19 ± 0.09 for the first, 3.3 ± 0.095 for the second.

DDLADDDFEEDEDEEDD [RPC31] and DDLIAEENPIMQTALRR [QCR7] are within error of each other in protein stability index: 3.46 ± 0.29 for the first, 3.06 ± 0.13 for the second.

DDPLENMFGDYSNEPFN [SNF6] and DDPTQLVSRGGCGNTQP [RPO21] are within error of each other in protein stability index: 3.16 ± 0.058 for the first, 3.04 ± 0.088 for the second.

DDRGPVLESIVARTFWA [BRR2] and DDSFFNETNDKKRNPSK [PRP28] are the same in protein stability index: 2.85 ± 0.077 for the first, 2.85 ± 0.084 for the second.

DDSRNPDCKIKIAHGTT [PRE2] and DDTKETVYISSIALLKM [RPN11] are within error of each other in protein stability index: 2.84 ± 0.078 for the first, 2.93 ± 0.055 for the second.

DDVTCDKLSVSEISDGK [SIN4] and DEAKEKQLVEKAELRLA [ECM29] are within error of each other in protein stability index: 3.29 ± 0.058 for the first, 3.27 ± 0.16 for the second.

First: DEDKFKKLKPIVAKYDP [PRP28]
Second: DEESLVKYMPEQKITEI [RPO21]
The protein stability index of the first is lower: 1.98 ± 0.059 for the first, 3.12 ± 0.056 for the second.

Compared with DEGMESIEMEEETDDED [RRI2], DEHNELMRQALAIKDSK [RPO21] is lower in protein stability index: 3.35 ± 0.14 for the first, 2.91 ± 0.044 for the second.

First: DEKVTILVDSLTGNQLP [SWI1]
Second: DELELEDAIHIALLTLK [PRE8]
The protein stability index of the first is lower: 2.95 ± 0.046 for the first, 3.15 ± 0.087 for the second.

DELETKAEKKVELHGKR [PRP8] and DELITEGNEKLAAVPAA [RPP2A] are within error of each other in protein stability index: 2.63 ± 0.18 for the first, 2.78 ± 0.09 for the second.

Going from DESDSENDIEIKGPEFK [YLR335W/NUP2] to DETTVPSYYYYVDPETT [ROX3], the protein stability index rises from 2.96 ± 0.095 to 3.25 ± 0.065.

First: DEVITEGQADIDMESDV [POP7]
Second: DFILSLLHHVSELDSND [YJL039C/NUP192]
The protein stability index of the first is higher: 3.22 ± 0.048 for the first, 2.4 ± 0.054 for the second.

First: DFKNEESLSEEHASLLV [MED8]
Second: DFLLSDWNKRFSHLAGG [BRR2]
The protein stability index of the first is higher: 3.26 ± 0.063 for the first, 2.85 ± 0.048 for the second.

Compared with DFPELKPYKQVKQIAPA [FAS2], DFSLRYISNLLYGVTIC [REC8] is lower in protein stability index: 2.66 ± 0.057 for the first, 1.5 ± 0.027 for the second.

Going from DGAGGDNEVQRTMLELI [RPT1] to DGIFSSKTDNIEDPNLS [YMR153W/NUP53], the protein stability index falls from 3.36 ± 0.066 to 2.55 ± 0.095.

First: DGIHYILNHIGQLTGIY [PRP8]
Second: DGKLEPSTRSNFILEVF [YJL039C/NUP192]
The protein stability index of the first is higher: 1.67 ± 0.078 for the first, 1.33 ± 0.069 for the second.

Going from DGKLIDISGTMSGGGNH [SMC4] to DGTAQLSNNKTDEEEQL [YJR042W/NUP85], the protein stability index falls from 3.6 ± 0.088 to 3.18 ± 0.098.

Going from DGTGVRVIVAGTLDINP [FAS1] to DHASIRRGYQVYREVCA [CYT1], the protein stability index falls from 2.59 ± 0.061 to 1.71 ± 0.036.

DHFIHLRNLHMKRMVAQ [SNF12] and DHLKLVSLFSNLRHERN [YIL149C/MLP2] are within error of each other in protein stability index: 2.45 ± 0.047 for the first, 2.44 ± 0.097 for the second.

Compared with DHSWFLLIGCKLDQDDE [CSI1], DIDDELNELETLIKKKQ [SMC2] is higher in protein stability index: 2.34 ± 0.064 for the first, 3.24 ± 0.078 for the second.

Going from DIDDILKKGEQKTQELN [ISW2] to DIEQLEYSRDCFCEDHC [RPB3], the protein stability index falls from 3.56 ± 0.092 to 2.61 ± 0.065.

Going from DINVELFPVAAQDSLTV [RPB8] to DISAAIVHSSDGHLQFL [DLS1], the protein stability index rises from 1.94 ± 0.069 to 2.8 ± 0.078.

DISAMQPVNPKPFLKGL [SMX3] and DITDGKDYHTLANNVES [RPS18A] are the same in protein stability index: 3.22 ± 0.053 for the first, 3.22 ± 0.04 for the second.

DITSDQLLQRLNDMNTE [SMC3] and DIVPYFLKHNGEEDAVD [RPN1] are within error of each other in protein stability index: 3.17 ± 0.12 for the first, 3.22 ± 0.094 for the second.

First: DIYFKLKKLEKEYELLT [RPT3]
Second: DKDAFIPKLKPAPINSL [SNU114]
The protein stability index of the first is lower: 1.98 ± 0.057 for the first, 2.84 ± 0.054 for the second.

DKDVKAKYETSILEHSG [FAS2] and DKGAVGPNNFIWPAEDA [MED4] are within error of each other in protein stability index: 3.37 ± 0.064 for the first, 3.23 ± 0.15 for the second.

First: DKINKYSLIRETNGYDP [SNF5]
Second: DKLKDIVGQTSRTVTPA [ITC1]
The protein stability index of the first is lower: 1.23 ± 0.19 for the first, 2.96 ± 0.052 for the second.

Going from DKLLKRLKEKGSRVLIF [ISW2] to DKNSGVKSEVDVQVDAE [ITC1], the protein stability index rises from 1.36 ± 0.052 to 2.97 ± 0.065.

First: DKPLLKAGRAFHKYRLK [RPL2A]
Second: DKQARKQRTKKEDKSEA [SNF2]
The protein stability index of the first is lower: 2.04 ± 0.061 for the first, 3.29 ± 0.11 for the second.

Compared with DLCSSVLSQFERSYPSE [ROX3], DLEEAYATQVKTDNTVD [RPT3] is lower in protein stability index: 3.17 ± 0.086 for the first, 2.79 ± 0.1 for the second.

DLFTHLWNQWLKLNTSL [SRP68] and DLIRSESMLHLSIWIKN [IRR1] are within error of each other in protein stability index: 1.83 ± 0.038 for the first, 1.8 ± 0.04 for the second.

Compared with DLISKKTKTSLLPTIKR [RPR2], DLKRFVDESLLSTLPAG [QCR2] is higher in protein stability index: 2.74 ± 0.063 for the first, 3 ± 0.051 for the second.

DLLHPTAASEARKHKLK [RPS27A] gave a protein stability index of 3.07 ± 0.072.
